According to IntAct's records for PubMed 10921873:

Tests used:
glo3_yeast GLO3 [1] = target: glo3_yeast GLO3 (UniProt P38682)
gcs1_yeast GCS1 [2] = target: gcs1_yeast GCS1 (UniProt P35197)
copb_yeast SEC26 [3] = target: copb_yeast SEC26 (UniProt P41810)
cope_yeast SEC28 [4] = target: cope_yeast SEC28 (UniProt P40509)
gcs1_yeast GCS1 [5] = target: gcs1_yeast GCS1 (UniProt P35197); remark: listed apart in the source
glo3_yeast GLO3 [6] = target: glo3_yeast GLO3 (UniProt P38682); remark: listed apart in the source
cope_yeast SEC28 [7] = target: cope_yeast SEC28 (UniProt P40509); remark: listed apart in the source
copb_yeast SEC26 [8] = target: copb_yeast SEC26 (UniProt P41810); remark: listed apart in the source

Measured: effect of a mutation on the interaction

Sequence of ADP-ribosylation factor 1 (Homo sapiens), P84077 Q71L (P84077 whole entry Q71L): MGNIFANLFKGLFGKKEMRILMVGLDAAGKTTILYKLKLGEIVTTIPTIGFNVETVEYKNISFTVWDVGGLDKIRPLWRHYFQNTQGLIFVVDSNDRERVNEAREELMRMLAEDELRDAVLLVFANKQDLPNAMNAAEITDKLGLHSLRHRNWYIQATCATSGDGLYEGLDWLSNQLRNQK
Sequence of cope_yeast SEC28 (P40509 whole entry): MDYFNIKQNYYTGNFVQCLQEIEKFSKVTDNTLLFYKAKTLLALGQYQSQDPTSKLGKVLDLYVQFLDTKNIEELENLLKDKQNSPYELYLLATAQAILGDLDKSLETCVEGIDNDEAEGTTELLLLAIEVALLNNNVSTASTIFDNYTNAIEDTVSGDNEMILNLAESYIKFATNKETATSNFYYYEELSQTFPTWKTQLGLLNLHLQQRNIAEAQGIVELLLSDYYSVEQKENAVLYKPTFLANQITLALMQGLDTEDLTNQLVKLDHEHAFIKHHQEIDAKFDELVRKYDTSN
Sequence of glo3_yeast GLO3 (P38682 whole entry): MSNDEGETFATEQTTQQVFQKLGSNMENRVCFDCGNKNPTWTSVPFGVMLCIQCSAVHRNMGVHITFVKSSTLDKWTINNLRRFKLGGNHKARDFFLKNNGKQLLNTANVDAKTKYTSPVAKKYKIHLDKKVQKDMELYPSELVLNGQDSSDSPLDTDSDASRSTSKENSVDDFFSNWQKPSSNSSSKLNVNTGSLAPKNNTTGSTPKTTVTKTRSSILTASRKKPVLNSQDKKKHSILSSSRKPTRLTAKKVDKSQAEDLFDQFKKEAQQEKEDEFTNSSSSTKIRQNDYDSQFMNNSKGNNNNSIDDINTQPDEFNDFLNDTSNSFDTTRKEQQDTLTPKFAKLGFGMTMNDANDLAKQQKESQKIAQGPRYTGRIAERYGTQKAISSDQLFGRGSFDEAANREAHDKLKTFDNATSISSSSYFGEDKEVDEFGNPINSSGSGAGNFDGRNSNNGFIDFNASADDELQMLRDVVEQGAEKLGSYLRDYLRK
Sequence of gcs1_yeast GCS1 (P35197 whole entry): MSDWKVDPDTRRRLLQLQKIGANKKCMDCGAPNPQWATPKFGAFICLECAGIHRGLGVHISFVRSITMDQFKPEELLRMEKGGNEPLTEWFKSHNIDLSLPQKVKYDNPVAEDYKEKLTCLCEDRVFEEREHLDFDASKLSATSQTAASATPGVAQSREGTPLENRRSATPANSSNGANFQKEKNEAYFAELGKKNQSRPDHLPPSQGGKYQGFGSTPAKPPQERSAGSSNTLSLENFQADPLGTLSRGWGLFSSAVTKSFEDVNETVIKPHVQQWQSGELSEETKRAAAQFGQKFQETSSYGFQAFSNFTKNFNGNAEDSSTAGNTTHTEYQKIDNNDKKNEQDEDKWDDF
Sequence of copb_yeast SEC26 (P41810 whole entry): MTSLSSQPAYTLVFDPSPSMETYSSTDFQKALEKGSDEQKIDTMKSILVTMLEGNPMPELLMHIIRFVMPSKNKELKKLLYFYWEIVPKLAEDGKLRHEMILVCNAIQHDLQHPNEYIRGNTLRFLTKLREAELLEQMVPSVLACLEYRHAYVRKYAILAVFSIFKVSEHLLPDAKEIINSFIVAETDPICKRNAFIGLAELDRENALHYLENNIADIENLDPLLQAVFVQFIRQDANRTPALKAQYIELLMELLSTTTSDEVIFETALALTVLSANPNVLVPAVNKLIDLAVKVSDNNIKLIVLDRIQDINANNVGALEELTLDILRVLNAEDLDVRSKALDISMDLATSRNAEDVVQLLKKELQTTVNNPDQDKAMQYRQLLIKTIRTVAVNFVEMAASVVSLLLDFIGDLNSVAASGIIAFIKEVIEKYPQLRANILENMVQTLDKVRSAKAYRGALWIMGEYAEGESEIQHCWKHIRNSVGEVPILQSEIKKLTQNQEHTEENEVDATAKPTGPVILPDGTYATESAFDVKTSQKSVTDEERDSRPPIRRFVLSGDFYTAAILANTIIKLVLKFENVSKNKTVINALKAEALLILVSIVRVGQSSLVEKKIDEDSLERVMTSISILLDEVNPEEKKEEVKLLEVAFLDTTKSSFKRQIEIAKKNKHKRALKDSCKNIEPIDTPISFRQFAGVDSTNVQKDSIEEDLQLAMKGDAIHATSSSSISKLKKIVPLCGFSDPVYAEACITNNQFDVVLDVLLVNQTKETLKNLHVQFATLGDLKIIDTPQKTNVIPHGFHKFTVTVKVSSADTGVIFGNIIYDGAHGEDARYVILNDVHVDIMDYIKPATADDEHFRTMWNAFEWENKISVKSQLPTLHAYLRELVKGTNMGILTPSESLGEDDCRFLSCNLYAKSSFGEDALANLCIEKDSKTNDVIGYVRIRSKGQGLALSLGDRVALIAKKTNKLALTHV

ADP-ribosylation factor 1 (Homo sapiens), P84077 N126I
increasing interaction: glo3_yeast GLO3 [1] | gcs1_yeast GCS1 [2] | copb_yeast SEC26 [3] | cope_yeast SEC28 [4]

ADP-ribosylation factor 1 (Homo sapiens), P84077 Q71L
increasing interaction: gcs1_yeast GCS1 [5] | glo3_yeast GLO3 [6] | cope_yeast SEC28 [7] | copb_yeast SEC26 [8]
